Laboratory results as given in IntAct's records for PubMed 21385318.

B1: Kinase non-catalytic C-lobe domain-containing protein 1 (Mus musculus), Q0KK55 (parent)
chain: MQAMDPASRGFYEEDGKDLDFYDFEPLPTLPEDEENVSLADILSLRDRGLSEQEAWAVCLECSLSMRSVAHAAIFQTLCITPDTLAFNTSGNVCFMEQLSDDPEGAFVPPEFDLTGNTFEAHIYSLGATLKAALEYVPEPELEPKLSTDLEGLLSQMQAEDPRERPDLASIIALCEEKMQPVSSCRLCRSLSAIGRRVLSIESFGAFQELSENTWRGRPAPRNVGPKKMPGDLSTDPEALFPSKGLLQPPASRDAEQEAGQRPRAPSPKPLLSAPVRNGENPGQEGLADLVLDARCPLGELDRDNLRRSRLKKAQTFPRLLQESTETSTLCLSLNGSRNQLAISEFFPPDPRKLFLEGKNGLSGFKTQSKSRLWPEQEPGVQLDKTPGAGRNPHRSPGASGQLEASSPSQGSVEYKPSPSPVDAGDSDHEGHIPRSEEKIPEESRQPGSTATEQSLSLKDLLSKLGRPFREYELWALCLSCLSTLQTHKEHPAHLCLDNVLVAEDGTVFFGPPPANGAYNSLFLAPEVSEEKLVTEKASVYCVAAVLWTAAKFSVPRDHKLALPRRLKTLLLDMARRHASERPSAAEAIKVCSSYLLQRGMDSSKILAHLRASTCKVHPEEETIGLQNAFSVVELKSTTAPAPESSPGFLQVSNDTKLVAVPGPVPGLPPCCKEACELPAAFTSEATHFKPIVLAQDASVTRDQLALPSESNEKPKEGSGHLDREGTRKQAALELVEATDLKMSNQLSPGPELQGATPDPDGDSGSPSSATECSCPHGPALVTQQKGTSGTPSSPASSLPPEHRPDGEGPLGTTVLPGPTSASQGSRHPCKPPRGKAAASPSSPRGSDGHPEKPRPADRKLCPSSVDTSSPPKMTACPSLQEAMRLIQEEFAFDGYMDNGLEALIMGEYIYALKDLTFATFCGAISEKFCDLYWDEQLLKNLFKVVNGPASPSESTSEEPGSQPEHSPSRCSLSSKRPSLHGLGKEKPATTWGSGGPCSPTALSDIDSDTLSQGNFEVGFRSQKSIKVTREQQPEAEVGGQPGPSQDSTSHASDTVARLARSEDGGPAGSPGASDFQNCSPGWSSAFYEADCFGADVYNYVKDLERQKTNGHTELEAQSPELEQQLMIEKRNYRKTLKFYQKLLQKEKRNKGSEVRTMLSKLRGQLDEMKSKVQFLSLVKKYLQVMYAERWGLEPCALPVIVNIAAAPCDTLDFSPLDESSSLIFYNVNKHPGSGRQKKARILQAGTPLGLMAYLYSSDAFLEGYVQQFLYTFRYFCTPHDFLHFLLDRISSTLSRAHQDPTSTFTKIYRRSLCVLQAWVEDCYTVDFIRNAGLLGQLEDFISSKILPLDGTAEHLLALLEVGTERRADSASRGADLEDPKEAEEDTRPFNALCKRFSEDGITRKSFSWRLPRGNGLVLPHHKERQYTIASALPKPCFFEDFYGPYAKASEKGPYFLTEYSTNQLFTQLTLLQQELFQKCHPVHFLNSRALGVMDKSAAIPKASSSESLSAKTCSLFLPNYVQDKYLLQLLRNADDVSTWVAAEIVTSHTSKLQVNLLSKFLLIAKSCYEQRNFATAMQILGGLEHLAVRQSPAWRILPAKIAEVMEELKAVEVFLKSDSLCLMEGRRFRAQPTLPSAHLLAMHIQQLETGGFTMTNGAHRWSKLRNIAKVASQVHAFQENPYTFSPDPKLQAHLKQRIARFSGADVSILAADNRANFHQIPGEKHSRKIQDKLRRMKATFQ

Variants of: B1
Conditions: with mtap2_mouse Map2, P20357
Sequence of mtap2_mouse Map2, P20357 (P20357 whole entry): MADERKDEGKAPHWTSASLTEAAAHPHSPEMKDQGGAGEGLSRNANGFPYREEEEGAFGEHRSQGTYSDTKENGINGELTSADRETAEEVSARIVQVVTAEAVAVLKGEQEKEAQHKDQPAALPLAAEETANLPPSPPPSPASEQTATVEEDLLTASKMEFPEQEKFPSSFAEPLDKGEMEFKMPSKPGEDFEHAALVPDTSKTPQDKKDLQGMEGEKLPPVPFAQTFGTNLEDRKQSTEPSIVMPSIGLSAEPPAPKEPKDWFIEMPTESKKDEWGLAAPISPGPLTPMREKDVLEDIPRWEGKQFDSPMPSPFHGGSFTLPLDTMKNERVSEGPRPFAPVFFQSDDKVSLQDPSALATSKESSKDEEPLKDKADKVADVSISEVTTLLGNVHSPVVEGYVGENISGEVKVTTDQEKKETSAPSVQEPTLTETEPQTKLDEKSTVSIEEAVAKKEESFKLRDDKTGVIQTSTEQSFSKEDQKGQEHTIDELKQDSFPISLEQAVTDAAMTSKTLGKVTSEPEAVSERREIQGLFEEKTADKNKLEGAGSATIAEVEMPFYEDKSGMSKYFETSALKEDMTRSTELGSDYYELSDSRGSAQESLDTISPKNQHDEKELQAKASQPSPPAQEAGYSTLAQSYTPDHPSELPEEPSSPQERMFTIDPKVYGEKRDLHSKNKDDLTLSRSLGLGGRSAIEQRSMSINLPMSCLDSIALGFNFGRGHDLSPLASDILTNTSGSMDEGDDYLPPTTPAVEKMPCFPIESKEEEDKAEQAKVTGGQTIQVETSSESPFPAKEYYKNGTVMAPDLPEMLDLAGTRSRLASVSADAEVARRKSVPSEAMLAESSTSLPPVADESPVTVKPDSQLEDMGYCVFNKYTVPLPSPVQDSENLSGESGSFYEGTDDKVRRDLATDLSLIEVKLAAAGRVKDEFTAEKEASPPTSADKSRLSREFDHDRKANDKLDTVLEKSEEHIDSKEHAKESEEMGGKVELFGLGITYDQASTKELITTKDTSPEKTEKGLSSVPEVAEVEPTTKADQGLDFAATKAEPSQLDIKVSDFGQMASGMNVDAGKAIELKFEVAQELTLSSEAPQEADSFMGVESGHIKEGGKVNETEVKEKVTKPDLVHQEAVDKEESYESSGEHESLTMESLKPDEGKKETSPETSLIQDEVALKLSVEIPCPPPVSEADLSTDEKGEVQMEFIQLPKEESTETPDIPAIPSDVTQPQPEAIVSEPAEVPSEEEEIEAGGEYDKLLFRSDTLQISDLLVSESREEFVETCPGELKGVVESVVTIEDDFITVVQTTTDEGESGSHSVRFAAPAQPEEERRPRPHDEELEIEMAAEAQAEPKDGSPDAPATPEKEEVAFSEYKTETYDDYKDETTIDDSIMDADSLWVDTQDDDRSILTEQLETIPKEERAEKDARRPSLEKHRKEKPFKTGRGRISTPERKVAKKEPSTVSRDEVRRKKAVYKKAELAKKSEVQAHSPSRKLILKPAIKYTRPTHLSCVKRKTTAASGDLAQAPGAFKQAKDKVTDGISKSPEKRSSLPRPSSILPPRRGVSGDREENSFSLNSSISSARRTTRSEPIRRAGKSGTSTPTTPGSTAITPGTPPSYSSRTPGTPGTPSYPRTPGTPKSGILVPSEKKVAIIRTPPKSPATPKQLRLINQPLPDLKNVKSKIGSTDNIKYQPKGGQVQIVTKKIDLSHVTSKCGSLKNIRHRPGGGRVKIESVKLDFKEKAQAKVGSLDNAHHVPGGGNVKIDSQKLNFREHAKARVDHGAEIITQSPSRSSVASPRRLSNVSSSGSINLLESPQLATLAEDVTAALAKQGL

Variant	effect of a mutation on the interaction
L477A	disrupting interaction

Variants of: B1
Conditions: with mtap2_mouse Map2, P20357
Remark: another data set of the same source

Variant	effect of a mutation on the interaction
L461A	disrupting interaction

Variants of: B1
Conditions: with mtap2_mouse Map2, P20357
Remark: another data set of the same source

Variant	effect of a mutation on the interaction
L474A	disrupting interaction
